Source: publication PMC12084297, “Cytoplasmic connexin43-microtubule interactions promote glioblastoma stem-like cell maintenance and tumorigenicity” (Cell Death & Disease, 2025)
Ends that are not written are not given here. * marks the point of attachment. Biotin = O=C1N[C@H]2[C@H](CS[C@H]2CCCCC(=O)*)N1

Key:
α-tubulin = α-tubulin (human (endogenous in VTC-037 GSCs), UniProt P68363 1-451); assay: cellular thermal shift assay (CETSA); fresh VTC-037 GSC lysates in non-denaturing buffer treated 1 h with 3-fold dilutions (222.2, 74.0, 24.7, 8.2 and 2.7 nM) of peptide, heat challenge at 57 °C for 20 min, centrifugation, immunoblot of the stable protein normalised to DMSO control; EC50 of target engagement; conditions: one partner purified
α-tubulin, sequence (P68363 whole entry): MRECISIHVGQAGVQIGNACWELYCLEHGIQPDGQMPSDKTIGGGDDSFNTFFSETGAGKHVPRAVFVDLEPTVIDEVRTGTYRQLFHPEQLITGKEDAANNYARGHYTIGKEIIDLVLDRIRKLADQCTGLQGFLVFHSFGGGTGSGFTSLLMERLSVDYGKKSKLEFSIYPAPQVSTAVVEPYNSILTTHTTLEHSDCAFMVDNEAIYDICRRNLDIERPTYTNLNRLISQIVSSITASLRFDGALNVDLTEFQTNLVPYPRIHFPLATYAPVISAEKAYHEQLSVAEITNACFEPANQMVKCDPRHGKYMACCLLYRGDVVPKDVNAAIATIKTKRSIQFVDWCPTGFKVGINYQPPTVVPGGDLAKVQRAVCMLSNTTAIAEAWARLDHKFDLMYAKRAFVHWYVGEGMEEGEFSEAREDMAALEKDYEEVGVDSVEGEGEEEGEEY

β-tubulin = β-tubulin (human (endogenous in VTC-001 and …, UniProt P07437 1-444)); assay: as above; conditions: one partner purified
β-tubulin (human, sequence (P07437 whole entry): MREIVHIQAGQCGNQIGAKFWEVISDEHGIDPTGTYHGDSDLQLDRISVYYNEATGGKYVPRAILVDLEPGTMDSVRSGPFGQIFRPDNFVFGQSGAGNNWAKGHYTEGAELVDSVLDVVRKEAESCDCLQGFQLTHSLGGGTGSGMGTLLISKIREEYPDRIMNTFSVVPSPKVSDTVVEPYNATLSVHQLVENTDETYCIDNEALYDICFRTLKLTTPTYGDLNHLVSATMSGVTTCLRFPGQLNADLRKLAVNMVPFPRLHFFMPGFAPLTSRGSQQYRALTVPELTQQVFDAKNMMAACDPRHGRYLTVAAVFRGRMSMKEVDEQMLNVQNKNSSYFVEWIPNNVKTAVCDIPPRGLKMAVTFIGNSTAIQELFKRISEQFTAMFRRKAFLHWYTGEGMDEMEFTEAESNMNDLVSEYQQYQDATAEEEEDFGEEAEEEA

Biotin-RQPKIWFPNRRKPWKKGSDVFKRKFVDRKVG [JM2-scrambled peptide]
EC50 (α-tubulin): > 200 nM | EC50 (β-tubulin): > 200 nM
